Key:
[1] = biological target: T1, human IL-5 with his-tag (rhIL-5-his) (human, UniProt P05113 20-134); test: Biacore T200, antibody captured on protein A chip, antigen in flow, 1:1 Langmuir
T1 construct: It was expressed in HEK293 and purified from the supernatant; also called HuIL-5; recombinant human IL-5
T1 sequence: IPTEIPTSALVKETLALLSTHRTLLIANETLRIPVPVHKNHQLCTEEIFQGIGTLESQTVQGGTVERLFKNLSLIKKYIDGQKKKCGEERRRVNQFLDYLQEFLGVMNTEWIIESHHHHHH
Method: (§1) The affinity of the murine IL-5 antibody to be tested with human IL-5 was measured by Biacore T200 (GE) instrument.
(§2) The protein A biosensor chip was used to affinity capture of the molecules to be tested, and then the antigen (recombinant human and cyno IL-5 prepared in Example 1) flowed through the surface of the chip, and the reaction signal was detected in real time with the Biacore T200 instrument to obtain the binding and dissociation curves. After the dissociation of each experimental cycle was completed, the biosensor chip was washed and regenerated with glycine-hydrochloric acid regeneration solution (pH 1.5). BIA evaluation version 4.1 GE software was used to fit the data against (1:1) Langmuir model, and the affinity value was obtained and shown in Table 13.

[2] = biological target: T2, cyno IL-5 with his-tag (cyno (paragraph 156 says rhesus), UniProt P48093 20-134 (rhesus entry)); test: as above
T2 construct: also called rhesus IL-5 with His-tag; monkey IL-5
T2 sequence: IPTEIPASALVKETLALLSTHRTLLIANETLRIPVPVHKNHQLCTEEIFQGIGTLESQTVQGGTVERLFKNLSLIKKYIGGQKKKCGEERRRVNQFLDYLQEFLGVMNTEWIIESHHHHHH
Method: as §1, §2

[3] = biological target: T1, human IL-5 with his-tag (rhIL-5-his); test: Biacore
Method: as §1, §2

[4] = biological target: T1, human IL-5 with his-tag (rhIL-5-his); test: competition ELISA: IL-5 coated, biotin-IL-5Rα (10 µg/ml) as competitor, antibody diluted
Method: To identify the ability of IL-5 antibody to block IL-5 from binding to the extracellular region of recombinantly expressed IL-5α receptor protein, IL-5 (5 μg/ml in PBS) was coated on an ELISA plate and incubated at 37° C. for 1 hour; the liquid was removed, 200 μl/well of 5% skimmed milk blocking solution diluted with PBS was added, and incubated for 2.5 hours in a 37° C. incubator for blocking. After blocking, the blocking solution was removed and the plate was washed with PBST buffer (pH 7.4 PBS comprising 0.05% Tween-20) for 5 times; 25 μl of 10 μg/ml IL-5Rα (in 1% BSA) labeled by a biotin labeling kit (Tojin Chemical, LK03) was added, and then 25 μl of gradient-diluted antibody was added (the antibody competed with IL-5Rα for the binding with IL-5) and incubated at 37° C. for 1 hour. After the incubation, the reaction solution in the microtiter plate was removed, the plate was washed for 5 times with PBST, added with 50 μl/well of Streptavidin-Peroxidase Polymer (Sigma, 52438-250UG) diluted with sample dilution solution at 1:600 and incubated for 1 hour at 37° C.

[5] = biological target: T1, human IL-5 with his-tag (rhIL-5-his); test: cell-based or functional assay
[6] = biological target: T1, human IL-5 with his-tag (rhIL-5-his); test: cell-based or functional assay; remark: listed apart in the source
[7] = biological target: T1, human IL-5 with his-tag (rhIL-5-his); test: FACS blocking: biotin-IL-5 (100 ng/ml) binding to IL-5Rα/β-CHOS cells, antibody diluted
Method: Particular method was as follows: CD-CHO comprising […] and […] zeozin was used to culture CHO-S-IL-5Rα and β. During cell culture, the concentration should not exceed 3×10⁶ cells/ml. IL-5Rα/β-CHOS cells in good condition were centrifuged (at 1000 rpm, 5 min), and washed once with 10% FBS in PBS, and the cells were counted, the cell concentration was adjusted to 4×10⁶ cells/ml, and 25 μl was taken out and added into a round-bottom 96-well plate. The antibody to be tested was diluted with PBS solution comprising 10% FBS. The initial concentration was 200 μg/ml, and diluted at 1:10 for 8 gradient dilutions. 25 μl of 100 ng/ml IL-5 labeled by a biotin labeling kit (Tojin Chemical, LK03) was added, and fully mixed with 50 μl of diluted antibody at each concentration, and added into 96-well plate that has been added with cells, and incubated at 4° C. for 1 hour. After the incubation, the sample was centrifuged at 4° C. (400 g, 5 min), and the supernatant was removed, the plated was washed with 200 μl of pre-cooled PBS by centrifugation, repeated for twice; PE-Avidin secondary antibody diluted at 1:1333 was added and incubated in the dark at 4° C. for 40 min, centrifuged at 4° C.

[8] = biological target: T3, IL3 (203-IL-050/CF) (UniProt P08700 20-152); test: Fortebio biolayer interferometry: antibody captured on Protein A biosensor, 40 nM cytokine injected; signal relative to IL-5 = 100%
T3 sequence (looked up): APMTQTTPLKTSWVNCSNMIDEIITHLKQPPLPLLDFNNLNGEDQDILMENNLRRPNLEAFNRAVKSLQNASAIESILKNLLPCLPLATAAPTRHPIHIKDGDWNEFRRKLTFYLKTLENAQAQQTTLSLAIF
Method: (§3) IL-5 was one of Th2 cytokines.
(§4) In particular: Protein A Biosensor (PALL Fortebio, 18-5010) was used to capture the antibody, the capture signal was recorded, and then 40 nM each cytokine was injected, the new binding signal was recorded. Finally, the binding signal with IL-5 was defined as 100%.

[9] = biological target: T4, IL4 (R&D, 204-IL-050/CF) (UniProt P05112 25-153); test: as above
T4 sequence (looked up): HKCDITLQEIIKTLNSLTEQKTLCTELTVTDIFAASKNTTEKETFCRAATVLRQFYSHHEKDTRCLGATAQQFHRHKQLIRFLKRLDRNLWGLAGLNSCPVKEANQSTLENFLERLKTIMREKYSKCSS
Method: as §3, §4

[10] = biological target: IL10 (R&D, 217-IL-025/CF) (UniProt P22301 19-178); test: as above
Method: as §3, §4

[11] = biological target: T5, IFNgamma (UniProt P01579 24-166, limits assumed); test: as above
T5 sequence (looked up): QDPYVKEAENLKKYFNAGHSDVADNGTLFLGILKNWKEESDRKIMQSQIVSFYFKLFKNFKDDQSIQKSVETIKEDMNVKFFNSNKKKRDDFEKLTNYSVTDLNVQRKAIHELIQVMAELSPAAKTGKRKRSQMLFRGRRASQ
Method: as §3, §4

[12] = biological target: IL2 (R&D, 202-IL-010/CF) (UniProt P60568 21-153); test: as above
Method: as §3, §4

[13] = biological target: GMCSF (R&D, 215-GM-010/CF) (UniProt P04141 18-144); test: as above
Method: as §3, §4

[14] = biological target: T6, IL25 (R&D, 8134-IL-025/CF) (UniProt Q9H293 33-177); test: as above
T6 sequence (looked up): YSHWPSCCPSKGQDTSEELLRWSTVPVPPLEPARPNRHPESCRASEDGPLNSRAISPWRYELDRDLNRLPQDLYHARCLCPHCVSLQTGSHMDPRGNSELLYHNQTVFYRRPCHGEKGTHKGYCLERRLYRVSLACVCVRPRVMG
Method: as §3, §4

[15] = biological target: IL13 (R&D, 213-ILB-025/CF) (UniProt P35225 35-146); test: as above
Method: as §3, §4

[16] = biological target: T7, IL31 (R&D, 2824-IL-010/CF) (UniProt Q6EBC2 24-164); test: as above
T7 sequence (looked up): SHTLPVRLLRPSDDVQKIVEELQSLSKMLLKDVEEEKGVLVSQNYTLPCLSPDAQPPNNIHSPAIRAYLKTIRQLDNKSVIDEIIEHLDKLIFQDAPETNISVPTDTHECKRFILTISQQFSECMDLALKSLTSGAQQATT
Method: as §3, §4

[17] = biological target: IL6 (R&D, 7270-IL-025/CF) (UniProt P05231 30-212, limits assumed); test: as above
Method: as §3, §4

[18] = biological target: IL9 (R&D, 209-IL-010/CF) (UniProt P15248 19-144); test: as above
Method: as §3, §4

[19] = biological target: T1, human IL-5 with his-tag (rhIL-5-his); test: Biacore T200, antibody captured on protein A chip, antigen in flow, 1:1 Langmuir; remark: listed apart in the source
Method: The affinity of the humanized IL-5 antibody to be tested with human IL-5 was measured by Biacore T200 (GE) instrument.
as §2, with “(prepared” for “(recombinant human and cyno IL-5 prepared”, “14.” for “13.”

IL10 (R&D, 217-IL-025/CF), sequence (P22301 19-178 limits assumed): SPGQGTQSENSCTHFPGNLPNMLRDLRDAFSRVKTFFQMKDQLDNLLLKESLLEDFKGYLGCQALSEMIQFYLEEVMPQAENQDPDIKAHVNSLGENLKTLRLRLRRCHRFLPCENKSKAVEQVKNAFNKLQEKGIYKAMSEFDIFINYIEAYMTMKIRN
IL13 (R&D, 213-ILB-025/CF), sequence (P35225 35-146 limits assumed): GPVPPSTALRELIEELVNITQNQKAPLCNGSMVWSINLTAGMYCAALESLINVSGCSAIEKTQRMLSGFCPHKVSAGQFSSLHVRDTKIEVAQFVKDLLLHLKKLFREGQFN
IL2 (R&D, 202-IL-010/CF), sequence (P60568 21-153 limits assumed): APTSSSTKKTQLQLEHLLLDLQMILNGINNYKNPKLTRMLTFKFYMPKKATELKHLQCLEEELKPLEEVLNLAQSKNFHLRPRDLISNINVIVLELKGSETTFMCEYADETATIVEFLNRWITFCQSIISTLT
GMCSF (R&D, 215-GM-010/CF), sequence (P04141 18-144 limits assumed): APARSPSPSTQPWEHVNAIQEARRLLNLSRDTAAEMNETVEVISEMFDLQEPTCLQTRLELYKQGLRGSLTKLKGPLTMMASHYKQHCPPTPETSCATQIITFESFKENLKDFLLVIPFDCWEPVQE
IL9 (R&D, 209-IL-010/CF), sequence (P15248 19-144 limits assumed): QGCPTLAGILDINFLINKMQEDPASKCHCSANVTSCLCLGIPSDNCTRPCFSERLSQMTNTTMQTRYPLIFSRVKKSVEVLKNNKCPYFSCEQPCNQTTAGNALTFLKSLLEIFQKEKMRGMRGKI

| Binder | Kd [1] | Kd [2] | Kd [3] | IC50 [4] | IC50 of blocking IL-5 induced eosinophil adhesion [5] | IC50 of inhibition of IL-5 induced TF1 cell proliferation [6] | IC50 [7] | binding result [8] | binding result [9] | binding result [10] | binding result [11] | binding result [12] | binding result [13] | binding result [14] | binding result [15] | binding result [16] | binding result [17] | binding result [18] | Kd [19] |
| --- | --- | --- | --- | --- | --- | --- | --- | --- | --- | --- | --- | --- | --- | --- | --- | --- | --- | --- | --- |
| mAb1705 (antibody, V domains shown, Murine hybridoma antibody) VH: EVQLVESGGGLVQPGRSLKLSCTASGFTFSHYYMAWVRQAPKKGLEWVTSISYEGDITYYGDSVKGRFTISRDNAKSTLYLQMNSLRSEDTATYYCASQTLRESFDYWGQGVMVTVSS VL: DIQMTQSPSSMSVSLGDRVTITCRASQDIANYLSWYQQKIARSPKLVIYGTSNLEVGVPSRFSGSRSGSDYSLTINTLESEDTGIYFCLQDKEFPRTFGGGTRLELK | 0.0727 nM | 0.205 nM | 0.0727 nM | 0.42 µg/mL | – | – | – | – | – | – | – | – | – | – | – | – | – | – | – |
| h1706-009 (antibody, human IgG1, kappa, V domains shown) VH: EVQLVESGGGLVQPGGSLRLSCAASGFTFSHYYMAWVRQAPGKGLEWVSSINYEGNSAYYGDSVKGRFTISRDNSKNTLYLQMNSLRAEDTAVYYCATETLRESLDYWGQGTMVTVSS VL: DIQMTQSPSSVSASVGDRVTITCRASQDIGNYLSWYQQKPGKSPKLMIYSASNLEVGVPSRFSGSGSGTDYTLTISSLQPEDFATYFCLQHKQFPRTFGGGTKVEIKR | – | – | – | – | 0.0043 µg/mL | 0.25 nM | 0.0247 µg/mL | no binding (tested: 40 nM) | no binding (tested: 40 nM) | no binding (tested: 40 nM) | no binding (tested: 40 nM) | no binding (tested: 40 nM) | no binding (tested: 40 nM) | no binding (tested: 40 nM) | no binding (tested: 40 nM) | no binding (tested: 40 nM) | no binding (tested: 40 nM) | no binding (tested: 40 nM) | 0.0545 nM |
| h1705-008 (antibody, human IgG1, kappa, V domains shown, IgG1 with M252Y/S254T/T256E, kappa) VH: EVQLVESGGGLVQPGGSLRLSCAASGFTFSHYYMAWVRQAPGKGLEWVTSISYEGDITYYGDSVKGRFTISRDNSKNTLYLQMNSLRAEDTATYYCASQTLRESFDYWGQGTLVTVSS VL: DIQMTQSPSSVSASVGDRVTITCRASQDIANYLSWYQQKPGKSPKLLIYGTSNLEVGVPSRFSGSRSGTDFTLTISSLQPEDFATYYCLQDKEFPRTFGGGTKVEIKR | – | – | – | – | 0.00485 µg/mL | 0.2 nM | 0.0145 µg/mL | no binding (tested: 40 nM) | no binding (tested: 40 nM) | no binding (tested: 40 nM) | no binding (tested: 40 nM) | no binding (tested: 40 nM) | no binding (tested: 40 nM) | no binding (tested: 40 nM) | no binding (tested: 40 nM) | no binding (tested: 40 nM) | no binding (tested: 40 nM) | no binding (tested: 40 nM) | 0.0342 nM |

Reference: patent US20220144937A1 (JIANGSU HENGRUI MEDICINE, published 2022)
